Experimental data reported in paper doi:10.1101/501064 (bioRxiv, 2018).
Non-standard residues stand in square brackets, D forms with d. No end group written: not given here. pS = N[C@@H](COP(=O)(O)O)C(=O)O

T1: human Scribble PDZ3 domain (1005-1094) (human, UniProt Q14160 1005-1094)
T1 sequence (looked up): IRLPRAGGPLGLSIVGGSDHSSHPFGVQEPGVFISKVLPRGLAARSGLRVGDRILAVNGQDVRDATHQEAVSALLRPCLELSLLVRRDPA

B1: MCC 8-mer peptide spanning the C-terminus (PDZ-binding motif) of human MCC (peptide)
peptide: PHTNETSL
B2: MCC_SD 8-mer peptide (Ser to Asp at position -1) (peptide)
peptide: PHTNETDL
B3: MCC_SE 8-mer peptide (Ser to Glu at position -1) (peptide)
peptide: PHTNETEL
B4: phosphorylated MCC 8-mer peptide (phospho-Ser at position -1) (peptide)
peptide: PHTNET[pS]L

Legend:
[1] = molecular target: T1, human Scribble PDZ3 domain (1005-1094); assay: ITC
[2] = molecular target: human Scribble PDZ1 domain (728-815) (human, UniProt Q14160 728-815); assay: ITC
Sequence of human Scribble PDZ1 domain (728-815) (Q14160 728-815): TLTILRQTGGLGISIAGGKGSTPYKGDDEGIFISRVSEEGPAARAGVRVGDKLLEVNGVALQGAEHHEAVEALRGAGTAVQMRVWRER

| Binder | Kd [1] | Kd [2] |
| --- | --- | --- |
| B1 | 5 µM | 7.7 µM |
| B2 | 3.4 µM | 7 µM |
| B3 | 4.5 µM | 7.2 µM |
| B4 | 3.7 µM | 6.1 µM |
